Legend:
TDG G199S = TDG G199S (human (rs4135113 variant), UniProt Q13569 1-410, G199S); assay: EMSA; 20 mM HEPES pH 7.3, 1 mM EDTA, 10 mM (NH4)2SO4, 1 mM DTT, 0.2% Tween-20, 30 mM KCl; 2 nM DNA, 30 min at room temperature; 6% native PAGE at 4 C; conditions: protein: recombinant; tags: N-terminal 6xHis (pET28a); label: 5'-32P on the template oligonucleotide; blunt
TDG WT = TDG WT (human, UniProt Q13569 1-410); assay: as above; conditions: protein: recombinant; tags: N-terminal 6xHis (pET28a); label: 5'-32P on the template oligonucleotide; blunt
TDG WT, sequence (Q13569 whole entry): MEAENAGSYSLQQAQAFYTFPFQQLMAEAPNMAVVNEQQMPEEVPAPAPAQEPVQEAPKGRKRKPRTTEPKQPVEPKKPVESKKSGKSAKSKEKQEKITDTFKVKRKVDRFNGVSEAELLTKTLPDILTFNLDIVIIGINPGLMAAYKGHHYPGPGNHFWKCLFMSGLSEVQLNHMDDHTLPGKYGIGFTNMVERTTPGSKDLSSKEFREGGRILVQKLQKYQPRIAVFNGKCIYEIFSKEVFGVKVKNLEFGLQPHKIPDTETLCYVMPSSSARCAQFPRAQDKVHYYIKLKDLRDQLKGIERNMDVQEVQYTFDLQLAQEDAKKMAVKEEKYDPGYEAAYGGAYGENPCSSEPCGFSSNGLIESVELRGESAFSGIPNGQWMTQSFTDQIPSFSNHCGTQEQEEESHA

TDG G199S, sequence (Q13569 whole entry G199S): as the sequence (Q13569 whole entry) above, with G199S counted along it

B1: 28-mer 5-FU:A (dsDNA)
DNA 1: CAGCTCTGTACATGAGCAGTGGTGACAC
DNA 2: GTGTCACCACTGCTCAUGTACAGAGCTG
modifications: 5-fluorouracil (X, written U) at position 17 of strand 2, opposite A12 of strand 1
- Kd (TDG G199S): 41 ± 5 nM
- Kd (TDG WT): 77 ± 13 nM

Reference: PMC4222680, “A Germline Polymorphism of Thymine DNA Glycosylase Induces Genomic Instability and Cellular Transformation”
